Measured values as given in patent publication US9657062B2, “Ghrelin analogues” (Zealand Pharma A/S, priority 2012, dated 2017).
*1 amine or outer side, *2 acyl side, *3 side chain or, on linkers, in order; H or OH if unused. [ ]: non-standard residue; d: D form. The star is where a group is joined. Achc(cis-1,4) = O=C([C@H]1CC[C@@H](N[*:1])CC1)[*:2]; Octanoyl = CCCCCCCC(=O)*; Octyl = CCCCCCCC*

Target: human growth hormone secretagogue receptor type 1a (human, UniProt Q92847 1-366)
Assay: cell-based or functional assay

human growth hormone secretagogue receptor type 1a, sequence (Q92847 whole entry): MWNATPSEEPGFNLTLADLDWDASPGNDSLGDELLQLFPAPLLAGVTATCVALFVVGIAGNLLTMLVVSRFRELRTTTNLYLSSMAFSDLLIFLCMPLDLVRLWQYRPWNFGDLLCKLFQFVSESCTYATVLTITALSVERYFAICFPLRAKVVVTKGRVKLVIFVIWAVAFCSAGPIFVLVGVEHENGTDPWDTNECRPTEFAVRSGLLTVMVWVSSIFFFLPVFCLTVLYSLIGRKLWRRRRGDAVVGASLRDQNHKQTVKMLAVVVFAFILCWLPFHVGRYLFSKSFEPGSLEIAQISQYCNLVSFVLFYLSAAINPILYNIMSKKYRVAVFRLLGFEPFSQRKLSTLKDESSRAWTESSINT

Row | Binder | EC50 (nM); Ca2+ induction in HEK293 cells stably expressing the human ghrelin receptor [nM]
1 | H-PSS(Octyl)FLSPEHQRVQQRKESKKPPA-NH2 (SMILES CCCCCCCCOC[C@H](NC(=O)[C@H](CO)NC(=O)[C@@H]1CCCN1)C(=O)N[C@@H](Cc1ccccc1)C(=O)N[C@@H](CC(C)C)C(=O)N[C@@H](CO)C(=O)N1CCC[C@H]1C(=O)N[C@@H](CCC(=O)O)C(=O)N[C@@H](Cc1c[nH]cn1)C(=O)N[C@@H](CCC(N)=O)C(=O)N[C@@H](CCCNC(=N)N)C(=O)N[C@H](C(=O)N[C@@H](CCC(N)=O)C(=O)N[C@@H](CCC(N)=O)C(=O)N[C@@H](CCCNC(=N)N)C(=O)N[C@@H](CCCCN)C(=O)N[C@@H](CCC(=O)O)C(=O)N[C@@H](CO)C(=O)N[C@@H](CCCCN)C(=O)N[C@@H](CCCCN)C(=O)N1CCC[C@H]1C(=O)N1CCC[C@H]1C(=O)N[C@@H](C)C(N)=O)C(C)C) [H-PS-S(O-octyl)-FLSPEHQRVQQRKESKKPPA-NH2] | 0.231
2 | H-PSS(Octyl)FLSPEHQRVQQRKES-NH2 (SMILES CCCCCCCCOC[C@H](NC(=O)[C@H](CO)NC(=O)[C@@H]1CCCN1)C(=O)N[C@@H](Cc1ccccc1)C(=O)N[C@@H](CC(C)C)C(=O)N[C@@H](CO)C(=O)N1CCC[C@H]1C(=O)N[C@@H](CCC(=O)O)C(=O)N[C@@H](Cc1c[nH]cn1)C(=O)N[C@@H](CCC(N)=O)C(=O)N[C@@H](CCCNC(=N)N)C(=O)N[C@H](C(=O)N[C@@H](CCC(N)=O)C(=O)N[C@@H](CCC(N)=O)C(=O)N[C@@H](CCCNC(=N)N)C(=O)N[C@@H](CCCCN)C(=O)N[C@@H](CCC(=O)O)C(=O)N[C@@H](CO)C(N)=O)C(C)C) [H-PS-S(O-octyl)-FLSPEHQRVQQRKES-NH2] | 0.221
3 | H-PSS(Octyl)FLSPEHSRVSSR-NH2 (SMILES CCCCCCCCOC[C@H](NC(=O)[C@H](CO)NC(=O)[C@@H]1CCCN1)C(=O)N[C@@H](Cc1ccccc1)C(=O)N[C@@H](CC(C)C)C(=O)N[C@@H](CO)C(=O)N1CCC[C@H]1C(=O)N[C@@H](CCC(=O)O)C(=O)N[C@@H](Cc1c[nH]cn1)C(=O)N[C@@H](CO)C(=O)N[C@@H](CCCNC(=N)N)C(=O)N[C@H](C(=O)N[C@@H](CO)C(=O)N[C@@H](CO)C(=O)N[C@@H](CCCNC(=N)N)C(N)=O)C(C)C) [H-PS-S(O-octyl)-FLSPEHSRVSSR-NH2] | 0.467
4 | H-FSS(Octanoyl)FLSPEHQRVQQRKESKKPPAKLQPR-OH (SMILES CCCCCCCC(=O)OC[C@H](NC(=O)[C@H](CO)NC(=O)[C@@H](N)Cc1ccccc1)C(=O)N[C@@H](Cc1ccccc1)C(=O)N[C@@H](CC(C)C)C(=O)N[C@@H](CO)C(=O)N1CCC[C@H]1C(=O)N[C@@H](CCC(=O)O)C(=O)N[C@@H](Cc1c[nH]cn1)C(=O)N[C@@H](CCC(N)=O)C(=O)N[C@@H](CCCNC(=N)N)C(=O)N[C@H](C(=O)N[C@@H](CCC(N)=O)C(=O)N[C@@H](CCC(N)=O)C(=O)N[C@@H](CCCNC(=N)N)C(=O)N[C@@H](CCCCN)C(=O)N[C@@H](CCC(=O)O)C(=O)N[C@@H](CO)C(=O)N[C@@H](CCCCN)C(=O)N[C@@H](CCCCN)C(=O)N1CCC[C@H]1C(=O)N1CCC[C@H]1C(=O)N[C@@H](C)C(=O)N[C@@H](CCCCN)C(=O)N[C@@H](CC(C)C)C(=O)N[C@@H](CCC(N)=O)C(=O)N1CCC[C@H]1C(=O)N[C@@H](CCCNC(=N)N)C(=O)O)C(C)C) [H-FS-S(O-octanoyl)-FLSPEHQRVQQRKESKKPPAKLQPR-OH] | 0.714
5 | H-PSS(Octyl)FLSPEHSR-NH2 (SMILES CCCCCCCCOC[C@H](NC(=O)[C@H](CO)NC(=O)[C@@H]1CCCN1)C(=O)N[C@@H](Cc1ccccc1)C(=O)N[C@@H](CC(C)C)C(=O)N[C@@H](CO)C(=O)N1CCC[C@H]1C(=O)N[C@@H](CCC(=O)O)C(=O)N[C@@H](Cc1c[nH]cn1)C(=O)N[C@@H](CO)C(=O)N[C@@H](CCCNC(=N)N)C(N)=O) [H-PS-S(O-octyl)-FLSPEHSR-NH2] | 0.44
6 | H-PSS(Octyl)FLSPEHSRVSSRKESKKPPAKLSPR-NH2 (SMILES CCCCCCCCOC[C@H](NC(=O)[C@H](CO)NC(=O)[C@@H]1CCCN1)C(=O)N[C@@H](Cc1ccccc1)C(=O)N[C@@H](CC(C)C)C(=O)N[C@@H](CO)C(=O)N1CCC[C@H]1C(=O)N[C@@H](CCC(=O)O)C(=O)N[C@@H](Cc1c[nH]cn1)C(=O)N[C@@H](CO)C(=O)N[C@@H](CCCNC(=N)N)C(=O)N[C@H](C(=O)N[C@@H](CO)C(=O)N[C@@H](CO)C(=O)N[C@@H](CCCNC(=N)N)C(=O)N[C@@H](CCCCN)C(=O)N[C@@H](CCC(=O)O)C(=O)N[C@@H](CO)C(=O)N[C@@H](CCCCN)C(=O)N[C@@H](CCCCN)C(=O)N1CCC[C@H]1C(=O)N1CCC[C@H]1C(=O)N[C@@H](C)C(=O)N[C@@H](CCCCN)C(=O)N[C@@H](CC(C)C)C(=O)N[C@@H](CO)C(=O)N1CCC[C@H]1C(=O)N[C@@H](CCCNC(=N)N)C(N)=O)C(C)C) [H-PS-S(O-octyl)-FLSPEHSRVSSRKESKKPPAKLSPR-NH2] | 0.48

Continued, values first:

Row | EC50 (nM); Ca2+ induction in HEK293 cells stably expressing the human ghrelin receptor [nM] | Binder
7 | 0.271 | H-[Achc(cis-1,4)]S(Octyl)FLSPEHQRVQQRKESKKPPAKLQPR-NH2 (SMILES CCCCCCCCOC[C@H](NC(=O)[C@H]1CC[C@@H](N)CC1)C(=O)N[C@@H](Cc1ccccc1)C(=O)N[C@@H](CC(C)C)C(=O)N[C@@H](CO)C(=O)N1CCC[C@H]1C(=O)N[C@@H](CCC(=O)O)C(=O)N[C@@H](Cc1c[nH]cn1)C(=O)N[C@@H](CCC(N)=O)C(=O)N[C@@H](CCCNC(=N)N)C(=O)N[C@H](C(=O)N[C@@H](CCC(N)=O)C(=O)N[C@@H](CCC(N)=O)C(=O)N[C@@H](CCCNC(=N)N)C(=O)N[C@@H](CCCCN)C(=O)N[C@@H](CCC(=O)O)C(=O)N[C@@H](CO)C(=O)N[C@@H](CCCCN)C(=O)N[C@@H](CCCCN)C(=O)N1CCC[C@H]1C(=O)N1CCC[C@H]1C(=O)N[C@@H](C)C(=O)N[C@@H](CCCCN)C(=O)N[C@@H](CC(C)C)C(=O)N[C@@H](CCC(N)=O)C(=O)N1CCC[C@H]1C(=O)N[C@@H](CCCNC(=N)N)C(N)=O)C(C)C) [H-[cACC]-S(O-octyl)-FLSPEHQRVQQRKESKKPPAKLQPR-NH2]
8 | 0.333 | H-PS[NH‑CH(n-C10H21)‑C(O)]FLSPEHQRVQQRKESKKPPAKLQPR-NH2 [H-PS-[NH-CH(n-C10H21)-C(O)]-FLSPEHQRVQQRKESKKPPAKLQPR-NH2]
9 | 0.23 | H-PS[NH‑CH(n-C10H21)‑C(O)]FLSPEHQRVQRKESKKPPAKLQPR-NH2 [H-PS-[NH-CH(n-C10H21)-C(O)]-FLSPEHQRVQRKESKKPPAKLQPR-NH2]
